# Reference: patent publication US20100172900A1 (Bristol-Myers Squibb, published 2010)
# Changes are numbered by the printed parent chain.
# T1: ICOS-Ig (human, UniProt Q9Y6W8)
# T1 construct: extracellular domain
# T1 sequence (fusion chain, looked up): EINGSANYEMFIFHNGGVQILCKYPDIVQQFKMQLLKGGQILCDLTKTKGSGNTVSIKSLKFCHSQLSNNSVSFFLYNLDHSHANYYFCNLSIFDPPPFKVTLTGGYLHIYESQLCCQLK
# B1: 1B4 human monoclonal antibody (antibody, IgG1, V domains shown)
# VH: QITLKESGPTLVKPTQTLTLTCTFSGFSLNTIGVGVNWIRQPPGKALEWLALIYWDDDKRYSPSLKRRLTISKDTSKNQVVLTMTNMDPVDTATYYCAHSGITEVRGVIIHYYGMDVWGQGTTVTVSS
# VL: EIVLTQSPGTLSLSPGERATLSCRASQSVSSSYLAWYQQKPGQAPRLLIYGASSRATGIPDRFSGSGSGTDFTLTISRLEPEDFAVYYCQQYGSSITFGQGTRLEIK
# notes: human antibody purified from hybridoma, kappa light chain (VK A27)
# B2: 3C2 human monoclonal antibody (antibody, IgG1, V domains shown)
# VH: QVQLQESGPGLVKPSETLSLTCTISGGSISNYYWNWIRQPPGKGLEWIGYIYYSTSTKYNPSLKSRVTMSVETSKNQFSLKLSSVTAADTAVYYCARVKVYSTGWFFDYWGQGTLVTVSS
# VL: AIQLTQSPSSLSASVGDRVTITCRASQGISSALAWYQQKPGKAPKLLIYDASSLESGVPSRFSGSGSGTDFTLTISSLQPEDFATYYCQQFNSYPLTFGGGTKVEIK
# B3: 11E2 human monoclonal antibody (antibody, IgG1, V domains shown)
# VH: EVQLVESGGGVIRPGGSLRLSCAASGFTFDDYGMSWVRQAPGKGLEWVSGINWNGGSTGYAASVKGRFTISRDNAKNSLYLQMNSLRAEDSALYYCARDYYYGPGSPNYFYYAMDVWGQGTTVTVSS
# VL: B2 VL with A1D, L4M, A32W, G41E, L46S, D50A, E55Q, F91Y, L96R, G100Q
# notes: kappa light chain (VK L15)
# B4: E4H9 human monoclonal antibody (antibody, V domains shown)
# VH: QVTLRESGPALVKPTQTLTLTCTFSGFSLSTSGMCVSWIRQPPGKALEWLALIDWDDVKYYSSSLKTRLTISKDTSKNQVVLTMTDMDPVDTATYYCARIRFTMFRGVYYYYYGLDVWGQGTTVTVSS
# VL: not shown
# notes: kappa light chain (VK A27)
# B5: 10H6 human monoclonal antibody (antibody, V domains shown)
# VH: QVQLVESGGGVVQPGRSLRLSCAASGFTFSSYDMHWVRQAPGKGLEWVAAIWNDGSNKYYADSVKGRFTISRDNSKNTLYLQMNSLRAEDTAVYYCARDRITMVRGVITQYYGMDVWGQGTTVTVSS
# VL: DIQLTQSPSSLSASVGDRVTITCRVSQGISSYLNWYRQKPGKVPKLLIYSASNLQSGVPSRFSGSGSGTDFTLTISSLQPEDVATYYGQRTYNAPYTFGQGTKLEIK
# B6: 11-E8D9 (antibody, V domains shown)
# VH: B1 VH with N30S, I32S, N37G, R67S, S72T, S100T, G101S, V108A, H111Y
# VL: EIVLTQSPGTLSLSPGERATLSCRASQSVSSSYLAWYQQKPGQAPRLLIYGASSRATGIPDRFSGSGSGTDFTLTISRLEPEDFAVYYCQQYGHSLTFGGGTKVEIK
# notes: also called 11E8D9.3; E8D9 human monoclonal antibody
# B7: 11-4C9 (antibody, V domains shown)
# VH: QITLKESGPTLVKPTQTLTLTCTFSGFSLSTSGVGVAWIRQPPGKALEWLALIYWDDDKRYSPSLKSRLTITKDTSKNQVVLTMSNMDPVDTATYYCAHTRIAEVRGVIYYYYGIDVWGQGTTVTVSS
# VL: EIVLTQSPGTLSLSPGERATLSCRASQSVSSTYLVWYQQKPGQAPRLLIYGASSRATGIPDRFSGSGSGTDFTLTISRLEPEDFAVYYCQQYGSSWTFGQGTKVEIK
# notes: The prefix 11- appears only on the sheets; also called 4C9 human monoclonal antibody
# B8: 6A5 human monoclonal antibody (antibody, V domains shown)
# VH: B7 VH with A37G, S85A, T100I, A103T, Y110I, Y111S, I115M
# VL: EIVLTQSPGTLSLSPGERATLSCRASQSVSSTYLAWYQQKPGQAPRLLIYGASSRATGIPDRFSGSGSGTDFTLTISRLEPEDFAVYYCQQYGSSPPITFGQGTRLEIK
# notes: kappa light chain (VK A27)
# Target: T2, recombinant human BTLA fusion protein (human, UniProt Q7Z6A9 31-156)
# T2 construct: also called BTLA-Ig; BTLA Ig antigen; not shown: Ig fusion partner
# Assay: Biacore, BTLA fusion protein coupled to CM5 chip, antibody flowed at 267 nM
# Protocol: Anti-BTLA antibodies were characterized for affinities and binding kinetics by Biacore analysis (Biacore AB, Uppsala, Sweden). Purified recombinant human BTLA fusion protein was covalently linked to a CM5 chip (carboxy methyl dextran coated chip) via primary amines, using standard amine coupling chemistry and kit provided by Biacore. Binding was measured by flowing the antibodies in HBS EP buffer (provided by Biacore AB) at a concentration of 267 nM at a flow rate of 50 μl/min. The antigen-antibody association kinetics was followed for 3 minutes and the dissociation kinetics was followed for 7 minutes. The association and dissociation curves were fit to a 1:1 Langmuir binding model using BIAevaluation software (Biacore AB). To minimize the effects of avidity in the estimation of the binding constants, only the initial segment of data corresponding to association and dissociation phases were used for fitting.
# T2 sequence (Q7Z6A9 other isoform, or with tags, fused parts or gaps): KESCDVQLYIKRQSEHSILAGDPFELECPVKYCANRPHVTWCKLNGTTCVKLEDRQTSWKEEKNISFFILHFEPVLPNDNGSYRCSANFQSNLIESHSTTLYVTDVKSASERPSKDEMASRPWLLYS
row,Binder,Kd
1,B1,2.88 nM
2,B2,0.88 nM
3,B3,0.61 nM
4,B4,0.13 nM

# Target: T2, recombinant human BTLA fusion protein
# Assay: Biacore 3000, antibody captured by anti-CH1, BTLA fusion protein 200 nM in solution
# Protocol: The binding of the 1B4, E4H9, 3C2, 6A5, 11E2 and 10116 antibodies to recombinant BTLA protein was examined by BIAcore™ using an antibody capture method. Each of the six anti-BTLA monoclonal antibodies were captured using anti-CH1, a reagent antibody that is specific towards the heavy chain constant region 1 of human antibody (Zymed, Clone HP6045, Stock conc. 1.0 mg/mL). Anti-CH1 was coated on a CM5 chip (BR-1000-14, Research Grade) at high density (6200-7960 RUs). The coating was carried out based on the standard immobilization procedure recommended by the manufacturer. The 1B4, E4H9, 3C2, 6A5, 11E2 and 10116 purified antibodies, with concentrations ranging from 1-10 μg/mL, were each then captured on the anti-CH1 coated chip surface at a flow-rate of 10 μl/min for 0.5-1 minute. A single concentration of recombinant human BTLA fusion protein (200 nM) was injected over captured antibody for 4 minutes at a flow rate of […]. The antigen was allowed to dissociate for 10 minutes. The chip surface was regenerated after each cycle with 10 μL of 30 mM NaOH, followed by 30 μl of HBS EP wash. Isotype controls were run on the chip, and the data used to subtract non-specific binding. All the experiments were carried out on a Biacore 3000 surface plasmon resonance instrument, using BIAcore Control software v 3.2. Data analysis was carried out using BiaEvaluation v3.2 software.
Binder,Kd,koff,kon
B1,5.74 nM,0.000284 s⁻¹,49400 M⁻¹ s⁻¹
B2,6.65 nM,0.000301 s⁻¹,45200 M⁻¹ s⁻¹
B5,3.82 nM,0.000153 s⁻¹,40000 M⁻¹ s⁻¹
B4,0.006 nM,3e-07 s⁻¹,45700 M⁻¹ s⁻¹

# Target: T3, recombinant human BTLA expressed at the cell surface of CHO cells (human, UniProt Q7Z6A9 31-289)
# T3 construct: also called BTLA-CHO cells; BTLA CHO cells
# Assay: FACS blocking assay: antibody pre-incubated with BTLA-CHO cells, then 0.5 ug/ml biotin HVEM Ig, streptavidin-PE detection
# Protocol: The ability of BTLA Mabs to block binding of BTLA to HVEM was also determined by FACS, and is expressed as the concentration of anti-BTLA IgG to block half the maximal binding of HVEM Ig to 10⁵ BTLA CHO cells (IC₅₀). BTLA CHO cells and antibody at various concentrations were pre-incubated for 30 minutes at 4° C., and then 0.5 ug/ml biotin labeled HVEM Ig (R & D Systems BAF 356) was added to the BTLA CHO-IgG mix and incubated for another 30 minutes. Cells were washed 2× in PBS-1% BSA, and binding of biotin HVEM Ig was detected by FACS after staining the cells with streptavidin-PE (BD Parmingen 3554061). IC₅₀ values were determined graphically using the Prism software (GraphPad Software). Results are depicted in FIG. 28B and FIG. 28C.
# T3 sequence (Q7Z6A9 31-289 R157S limits assumed): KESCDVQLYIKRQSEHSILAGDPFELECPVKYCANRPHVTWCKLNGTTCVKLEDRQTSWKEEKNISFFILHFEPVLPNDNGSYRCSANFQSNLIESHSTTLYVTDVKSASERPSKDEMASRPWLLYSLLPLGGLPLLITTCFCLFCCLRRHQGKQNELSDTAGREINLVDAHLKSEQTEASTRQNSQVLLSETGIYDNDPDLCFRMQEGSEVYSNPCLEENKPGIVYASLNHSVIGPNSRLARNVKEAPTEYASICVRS
row,Binder,IC50
1,B1,1.9 nM
2,B2,1.97 nM
3,B5,2.13 nM
4,B3,2.73 nM
5,B4,1.05 nM
6,B6,0.34 nM
7,B7,1.02 nM

# Target: T3, recombinant human BTLA expressed at the …
# Assay: flow cytometry on BTLA-transfected CHO cells, PE anti-human IgG detection, MFI against log nM IgG
# Protocol: Chinese hamster ovary (CHO) cell lines that express recombinant human BTLA at the cell surface were developed and used to determine the specificity of BTLA human monoclonal antibodies by flow cytometry. CHO cells were transfected with expression plasmids containing full length cDNA encoding transmembrane forms of BTLA. Binding of the anti-BTLA human monoclonal antibodies was assessed by incubating the transfected cells with the anti-BTLA human monoclonal antibodies at a concentration from 0.01 nM to 66 nM. The antibodies were incubated with 10⁵ BTLA CHO cells for 60 minutes at 4° C. in PBS1% BSA. […] The EC₅₀ was determined graphically by plotting the mean flourescence intensity (MFI) versus the log of the antibody concentration using Prism graphing software (GraphPad software). Flow cytometric analyses were performed using a FACSArray flow cytometry (Becton Dickinson, San Jose, Calif.). The results are depicted in FIG. 28A.
row,Binder,EC50
1,B1,1.34 nM
2,B2,1.78 nM
3,B5,1.89 nM
4,B3,3.25 nM
5,B4,1.55 nM
6,B6,0.373 nM
7,B7,1.56 nM

# Target: T4, CTLA4-Ig (human, UniProt P16410)
# T4 construct: extracellular domain
# Assay: ELISA, plate coated with receptor-Ig fusion, antibody at 1 ug/mL, HRP-conjugated detection antibody
# Protocol: (§1) ELISA plates were coated overnight with fusion proteins consisting of the extracellular domains of a panel of CD28 receptor family molecules fused to the Fc portion of human IgG (Table 4). The plates were washed and blocked to minimize non-specific binding. A panel of anti-BTLA antibodies and isotype control antibodies (Table 5), and positive control detection antibodies (Table 3), all diluted to 1 ug/mL, were added in duplicate to the assay plates for one hour. After extensive washing the appropriate HRP-conjugated detection antibodies were added to the plates for one hour followed by washing and development using 3, 3′, 5, 5′-tetramethylbenzidine (TMB) as substrate. Optical density measurements at 650 nm were recorded.
# T4 sequence (P16410 36-161): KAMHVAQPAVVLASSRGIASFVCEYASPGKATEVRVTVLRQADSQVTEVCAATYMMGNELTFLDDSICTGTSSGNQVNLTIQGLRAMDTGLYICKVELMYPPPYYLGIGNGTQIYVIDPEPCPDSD
row,Binder,binding result
1,B1,no binding (tested: 1 ug/mL)
2,B2,no binding (tested: 1 ug/mL)
3,B3,no binding (tested: 1 ug/mL)
4,B4,no binding (tested: 1 ug/mL)
5,B6,no binding (tested: 1 ug/mL)
6,B8,no binding (tested: 1 ug/mL)

# Target: PD1-Ig
# Assay: as above
# Protocol: as §1
# Chain of PD1-Ig (chain, as listed by the source limits assumed): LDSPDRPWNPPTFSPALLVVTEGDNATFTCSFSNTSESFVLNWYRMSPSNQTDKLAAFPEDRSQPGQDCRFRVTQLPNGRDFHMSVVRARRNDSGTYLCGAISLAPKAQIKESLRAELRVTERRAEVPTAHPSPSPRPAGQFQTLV
row,Binder,binding result
1,B1,no binding (tested: 1 ug/mL)
2,B2,no binding (tested: 1 ug/mL)
3,B3,no binding (tested: 1 ug/mL)
4,B4,no binding (tested: 1 ug/mL)
5,B6,no binding (tested: 1 ug/mL)
6,B8,no binding (tested: 1 ug/mL)

# Target: T5, CD28-Ig (human, UniProt P10747)
# T5 construct: extracellular domain
# Assay: as above
# Protocol: as §1
row,Binder,binding result
1,B2,no binding (tested: 1 ug/mL)
2,B3,no binding (tested: 1 ug/mL)

# Target: T1, ICOS-Ig
# Assay: as above
# Protocol: as §1
row,Binder,binding result
1,B2,no binding (tested: 1 ug/mL)
2,B3,no binding (tested: 1 ug/mL)

# Target: T6, TrkB-Ig (human, UniProt Q16620)
# T6 construct: extracellular domain
# Assay: as above
# Protocol: as §1
row,Binder,binding result
1,B1,no binding (tested: 1 ug/mL)
2,B2,no binding (tested: 1 ug/mL)
3,B3,no binding (tested: 1 ug/mL)
4,B4,no binding (tested: 1 ug/mL)
5,B6,no binding (tested: 1 ug/mL)
6,B8,no binding (tested: 1 ug/mL)
